From PMC10450178

Key:
Assay in all cases: BLI
[1] = test system: Gmab anti-G4 antibody fragment (human (Garvan-2 scFv library)); conditions: Buffer R: 20 mM HEPES pH 7.4-7.5, 20 mM NaOAc, 140 mM KOAc, 3 mM Mg(OAc)2, 0.1% Tween20, SPR at 20 C, BLI temperature not …
BG4 anti-G4 antibody = conditions: Buffer R: 20 mM HEPES pH 7.4-7.5, 20 mM NaOAc, 140 mM KOAc, 3 mM Mg(OAc)2, 0.1% Tween20, SPR at 20 C, BLI temperature not …
[2] = biological target: hen egg-white lysozyme (HEL) (Gallus gallus) (UniProt P00698); conditions: Buffer R: 20 mM HEPES pH 7.5, 20 mM NaOAc, 140 mM KOAc, 3 mM Mg(OAc)2, 0.1% Tween20, BLI temperature not stated, low values mean tight binding
Sequence of hen egg-white lysozyme (HEL) (Gallus gallus) (P00698 19-147): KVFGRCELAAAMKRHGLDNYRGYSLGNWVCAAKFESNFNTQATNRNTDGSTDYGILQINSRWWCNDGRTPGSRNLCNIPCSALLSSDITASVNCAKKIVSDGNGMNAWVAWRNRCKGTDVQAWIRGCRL

## CGGGCGGGCGCGAGGGAGGGG [KIT2 G4]
[1]; ka 7.5e4 M-1s-1, kd 2.7e-4 s-1
  Kd: 3.6 nM
BG4 anti-G4 antibody; ka 7.9e4 M-1s-1, kd 1.5e-4 s-1
  Kd: 1.9 nM

## GTGCTGTTCGTTTAAATGTGTGTCGTCGTTCGCTATCC [LYS-S8-19-core14 (HNA)]
[2]; all-HNA (1',5'-anhydrohexitol)
  Kd: 48.8 nM
[1]; all-HNA (1',5'-anhydrohexitol)
  Kd: 32.3 nM
BG4 anti-G4 antibody; all-HNA (1',5'-anhydrohexitol)
  Kd: 5.3 nM

## GTTCGTTTAAATATGTGTCGTCGTTCGCTATCC [core13 G13A]
[2]; all-HNA
  Kd: 97.9 nM

## GTTCGTTTAAATGTGTGTCGTCGTTCACTATCC [core13 G27A]
[2]; all-HNA
  Kd: 9.28 nM

## GTTCGTTTAAATGTGTGTCGTCGTTCCCTATCC [core13 G27C]
[2]; all-HNA
  Kd: 116 nM

## GTTCGTTTAAATGTGTGTCGTCGTTCGCTATCC [LYS-S8-19-core13 (HNA)]
[2]; all-HNA
  Kd: 68.8 nM
[1]; ka 8.47e4, kd 1.00e-2, all-HNA
  Kd: 118 nM
